This assay addresses Protein A (Staphylococcus aureus) (UniProt P38507). In words: Protein A interaction assay (POROS A column HPLC), acidic elution.

With hu IgG (positive control) (antibody), the retention time was determined as 31.3 min.
